{"source": "patent US20060165681A1", "about": "(GlaxoSmithKline, published 2006)", "key": {"[1]": {"target": "T1, rat MAG-Fc fusion protein (R&D Systems; 538-MG) (rat; human, UniProt P07722 20-516, limits assumed)", "T1 construct": "Bought reagent coated on ELISA plates; not shown: human Fc", "T1 sequence (looked up)": "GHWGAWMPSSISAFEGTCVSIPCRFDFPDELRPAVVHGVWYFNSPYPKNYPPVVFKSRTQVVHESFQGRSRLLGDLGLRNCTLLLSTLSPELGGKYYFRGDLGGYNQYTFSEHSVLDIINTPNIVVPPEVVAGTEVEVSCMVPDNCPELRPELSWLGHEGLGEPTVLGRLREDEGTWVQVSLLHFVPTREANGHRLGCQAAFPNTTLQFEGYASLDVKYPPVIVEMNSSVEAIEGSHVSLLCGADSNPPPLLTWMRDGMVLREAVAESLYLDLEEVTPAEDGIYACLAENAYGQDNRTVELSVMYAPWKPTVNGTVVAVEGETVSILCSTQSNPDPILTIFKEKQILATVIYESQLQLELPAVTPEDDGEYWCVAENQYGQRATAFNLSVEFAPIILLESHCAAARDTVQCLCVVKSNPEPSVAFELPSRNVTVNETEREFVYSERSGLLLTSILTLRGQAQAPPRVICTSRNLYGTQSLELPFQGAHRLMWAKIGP", "assay": "ELISA on coated rat MAG-Fc, purified antibody"}, "[2]": {"target": "T1, rat MAG-Fc fusion protein (R&D Systems; …)", "assay": "ELISA on coated rat MAG-Fc; purified antibody serially diluted from 5000 ng/ml", "description": "96-well Nunc Maxisorp plates were coated overnight at 4° C. with rat MAG-Fc fusion protein (2.5 μg/ml; R&D Systems; Cat.No. 538-MG) in PBS. Plates were washed twice with PBS containing Tween20 (0.1% v/v; PBST) and blocked with PBS containing BSA (1% w/v) for 1 h at room temperature (RT). Purified humanised antibody was adjusted to a starting concentration of 5 μg/ml in blocking buffer and then serial diluted. Antibody samples were incubated 1 h at RT and plates then washed 3× with PBST. Secondary antibody (Goat anti-human light chain specific-peroxidase conjugate; Sigma A-7164) was added diluted 1/5000 in blocking buffer and incubated for 1 h at RT. Wells were washed three times as above and binding detected by adding substrate (OPD tablets dissolved according to instructions; Sigma P-9187). Colour development was monitored and the reaction stopped using 3M H₂SO₄ Colour development was read at 490 nm."}}}
{"binder": "humanised anti-MAG antibody BVh1/CVl1 (antibody, V domains shown, The purified material has a mutated human IgG1 constant region (Kabat residues 248 and 250 changed to alanine) and a human kappa light chain; The antibody was also tested as culture supernatant on human MAG, and the constant region is not restated there; also called BVh1/CVl1 mutated IgG1) VH: QVQLVQSGSELKKPGASVKVSCKASGYTFTNYGMNWVRQAPGQGLEWMGWINTYTGEPTYADDFTGRFVFSLDTSVSTAYLQISSLKAEDTAVYYCARNPINYYGINYEGYVMDYWGQGTLVTVSS VL: not shown", "values": [{"measurement": "binding result", "setting": "[1]", "value": "binds"}]}
{"binder": "humanised anti-MAG antibody BVh3/CVl3 (antibody, human IgG1, V domains shown, The antibody was also tested as culture supernatant on human MAG) VH: QVQLVQSGSELKKPGASVKVSCKASGYTFTNYGMNWVRQAPGQGLEWMGWINTYTGEPTYADDFTGRFVFSLDTSVSTAYLQISSLKAEDTATYFCARNPINYYGINYEGYVMDYWGQGTLVTVSS VL: DIVMTQSPDSLAVSLGERATINCKSSHSVLYSSNQKNYLAWYQQKPGQPPKLLIYWASTRESGVPDRFSGSGSGTDFTLTISSLHTEDVAVYYCHQYLSSLTFGQGTKLEIKR", "values": [{"measurement": "binding result", "setting": "[2]", "value": "binds"}]}
